Data published in paper PMC10911789.
pKd: −log10 of the molar value.

Target: Recombinant spike, SARS-CoV-2 stabilized protein (BEI Resources NR-52724) (SARS-CoV-2) (UniProt P0DTC2)
Assay: BLI

Sequence of recombinant human GAPDH (glyceraldehyde-3-phosphate dehydrogenase) (P04406 whole entry): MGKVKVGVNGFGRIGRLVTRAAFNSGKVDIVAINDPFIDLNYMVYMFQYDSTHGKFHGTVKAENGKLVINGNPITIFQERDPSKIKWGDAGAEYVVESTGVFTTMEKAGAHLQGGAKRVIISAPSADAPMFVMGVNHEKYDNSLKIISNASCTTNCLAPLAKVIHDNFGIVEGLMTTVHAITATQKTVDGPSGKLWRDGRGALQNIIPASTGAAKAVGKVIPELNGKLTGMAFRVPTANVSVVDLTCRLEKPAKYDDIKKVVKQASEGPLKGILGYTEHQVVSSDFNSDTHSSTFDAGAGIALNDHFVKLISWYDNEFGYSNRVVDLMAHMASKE

recombinant human GAPDH (glyceraldehyde-3-phosphate dehydrogenase) (from UniProt P04406 1-335) (enzyme)
pKd: 7.21
